How the values were obtained:
[1] = substrate: NC(=O)C(=O)O; test: oxamate consumption by HPLC, reverse reaction; assay type: biochemical, Escherichia coli; details: co-substrate carbamoyl phosphate, 10 mM MgCl2, 100 mM Tris pH 9.0, 30 °C, 100 nM enzyme
Source text: (§1) oxamate consumption by HPLC, reverse reaction on AllFGH (AllF-AllG-AllH; FdrA-YlbE-YlbF), oxamic transcarbamylase (OXTCase)

[2] = substrate: NC(=O)OP(=O)(O)O; test: oxamate consumption by HPLC, reverse reaction; assay type: biochemical, Escherichia coli; details: oxamate fixed at 40 mM, 10 mM MgCl2, 100 mM Tris pH 9.0, 30 °C, 100 nM enzyme
Source text: as §1

B1: AllFGH (AllF-AllG-AllH; FdrA-YlbE-YlbF), oxamic transcarbamylase (OXTCase) (Escherichia coli K-12) (protein)
chain 1: MIHAFIKKGCFQDSVSLMIISRKLSESENVDDVSVMMGTPANKALLDTTGFWHDDFNNATPNDICVAIRSEAADAGIAQAIMQQLEEALKQLAQGSGSSQALTQVRRWDSACQKLPDANLALISVAGEYAAELANQALDRNLNVMMFSDNVTLEDEIQLKTRAREKGLLVMGPDCGTSMIAGTPLAFANVMPEGNIGVIGASGTGIQELCSQIALAGEGITHAIGLGGRDLSREVGGISALTALEMLSADEKSEVLAFVSKPPAEAVRLKIVNAMKATGKPTVALFLGYTPAVARDENVWFASSLDEAARLACLLSRVTARRNAIAPVSSGFICGLYTGGTLAAEAAGLLAGHLGVEADDTHQHGMMLDADSHQIIDLGDDFYTVGRPHPMIDPTLRNQLIADLGAKPQVRVLLLDVVIGFGATADPAASLVSAWQKACAARLDNQPLYAIATVTGTERDPQCRSQQIATLEDAGIAVVSSLPEATLLAAALIHPLSPAAQQHTPSLLENVAVINIGLRSFALELQSASKPVVHYQWSPVAGGNKKLARLLERLQ
chain 2: MFTSVAQANAAVIEQIRRARPHWLDVQPASSLISELNEGKTLLHAGPPMRWQEMTGPMKGACVGACLFEGWAKDEAQALAILEQGEVNFIPCHHVNAVGPMGGITSASMPMLVVENVTDGNRAYCNLNEGIGKVMRFGAYGEDVLTRHRWMRDVLMPVLSAALGRMERGIDLTAMMAQGITMGDEFHQRNIASSALLMRALAPQIARLDHDKQHIAEVMDFLSVTDQFFLNLAMAYCKAAMDAGAMIRAGSIVTAMTRNGNMFGIRVSGLGERWFTAPVNTPQGLFFTGFSQEQANPDMGDSAITETFGIGGAAMIAAPGVTRFVGAGGMEAARAVSEEMAEIYLERNMQLQIPSWDFQGACLGLDIRRVVETGITPLINTGIAHKEAGIGQIGAGTVRAPLACFEQALEALAESMGIG
chain 3: MTIIHPLLASSSAPNYRQSWRLAGVWRRAINLMTESGELLTLHRQGSGFGPGGWVLRRAQFDALCGGLCGNERPQVVAQGIRLGRFTVKQPQRYCLLRITPPAHPQPLAAAWMQRAEETGLFGPLALAASDPLPAELRQFRHCFQAALNGVKTDWRHWLGKGPGLTPSHDDTLSGMLLAAWYYGALDARSGRPFFACSDNLQLVTTAVSVSYLRYAAQGYFASPLLHFVHALSCPKRTAVAIDSLLALGHTSGADTLLGFWLGQQLLQGKP
notes: full-length subunits co-expressed from pET30b (pMB191) in E. coli BL21(DE3); 6xHis at N-terminus of AllF and C-terminus of AllH, tags kept; 62, 46, 31 kDa; 555, 419, 271 aa
- Km [1]: 36.9 mM
- kcat [1]: 58.5 s⁻¹
- kcat/Km [1]: 1600 M⁻¹ s⁻¹
- Km [2]: 1.3 mM
- kcat [2]: 35.5 s⁻¹
- kcat/Km [2]: 27300 M⁻¹ s⁻¹

— article PMC11326118, “Oxamic transcarbamylase of Escherichia coli is encoded by the three genes allFGH (formerly fdrA, ylbE, and ylbF)” (Applied and Environmental Microbiology, 2024)
